{
  "source": "patent US20180051253",
  "proteins": {"B1": {"name": "endogenous SIRT7 (protein)", "chain": "MAAGGLSRSERKAAERVRRLREEQQRERLRQVSRILRKAAAERSAEEGRLLAESADLVTELQGRSRRREGLKRRQEEVCDDPEELRGKVRELASAVRNAKYLVVYTGAGISTAASIPDYRGPNGVWTLLQKGRSVSAADLSEAEPTLTHMSITRLHEQKLVQHVVSQNCDGLHLRSGLPRTAISELHGNMYIEVCTSCVPNREYVRVFDVTERTALHRHQTGRTCHKCGTQLRDTIVHFGERGTLGQPLNWEAATEAASRADTILCLGSSLKVLKKYPRLWCMTKPPSRRPKLYIVNLQWTPKDDWAALKLHGKCDDVMRLLMAELGLEIPAYSRWQDPIFSLATPLRAGEEGSHSRKSLCRSREEAPPGDRGAPLSSAPILGGWFGRGCTKRTKRKKVT"}},
  "target": "T1, Nuclear Respiratory Factor 1 (NRF1), Q16656",
  "T1 chain": "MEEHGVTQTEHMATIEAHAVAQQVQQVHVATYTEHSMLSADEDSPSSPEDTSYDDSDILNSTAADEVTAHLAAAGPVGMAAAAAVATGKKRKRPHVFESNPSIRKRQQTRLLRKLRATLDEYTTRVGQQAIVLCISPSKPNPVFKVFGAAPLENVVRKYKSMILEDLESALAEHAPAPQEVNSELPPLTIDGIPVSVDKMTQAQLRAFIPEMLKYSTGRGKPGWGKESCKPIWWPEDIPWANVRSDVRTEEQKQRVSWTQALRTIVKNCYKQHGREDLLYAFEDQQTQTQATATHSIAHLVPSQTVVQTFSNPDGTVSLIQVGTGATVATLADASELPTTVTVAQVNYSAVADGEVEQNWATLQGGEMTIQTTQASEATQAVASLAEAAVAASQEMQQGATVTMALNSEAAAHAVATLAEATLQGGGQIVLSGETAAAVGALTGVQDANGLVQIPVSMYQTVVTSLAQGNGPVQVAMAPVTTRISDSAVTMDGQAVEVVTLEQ",
  "data": [
    {"protein": "B1", "values": [
      {"measurement": "SIRT7 occupancy at gene promoters (ChIP-qPCR) after NRF1 siRNA", "result": "NRF1 knockdown (KD) using siRNA reduced SIRT7 occupancy at the promoters of mRPs and mTFs, but not RPS20"}
    ]}
  ]
}
